{
  "source": "the RNAGym collection of RNA variant scans (doi:10.7554/elife.90254)",
  "parents": {"B1": {"name": "OR4K15 (parent)", "chain": "GUUAACGGUCAUAGGCCAUGGAAACUAGGAGCACCAUUUCGCUGCCAGUGAAGAAAUGAACAAAGAAAAUCUGGGCCAGGCAGGCAUCAAAAGAAAUAGUCUUGCGCUCAACCAGAAAGUCUGUAAUCAUUUUAAGGGUA"}},
  "data": [
    {"variants_of": "B1", "assay": "self-cleavage, relative activity (ratio to wild type); higher = more cleavage; in vitro, sequencing; the parent is a self-cleaving ribozyme", "values": [
      {"variant": "U39A A116G", "self-cleavage": 1.2},
      {"variant": "U38C U97C", "self-cleavage": 1.57},
      {"variant": "U38C A95G", "self-cleavage": 1.58},
      {"variant": "U38A A117U", "self-cleavage": 0.73},
      {"variant": "U38A A117G", "self-cleavage": 2.22},
      {"variant": "U38C U130C", "self-cleavage": 1.5},
      {"variant": "U39A A91G", "self-cleavage": 1.56},
      {"variant": "U39A A94C", "self-cleavage": 1.87},
      {"variant": "U39A A94G", "self-cleavage": 1.47},
      {"variant": "U38C A52G", "self-cleavage": 1.53},
      {"variant": "U38C A52C", "self-cleavage": 0.68},
      {"variant": "U39A A126G", "self-cleavage": 1.59},
      {"variant": "U39A A126C", "self-cleavage": 0.87},
      {"variant": "U38G U108C", "self-cleavage": 0.03},
      {"variant": "U38A U131C", "self-cleavage": 1.16},
      {"variant": "U38C C109A", "self-cleavage": 0.51},
      {"variant": "U39A A52G", "self-cleavage": 1.21},
      {"variant": "U39A A117G", "self-cleavage": 2.24},
      {"variant": "U38C U127C", "self-cleavage": 0.66},
      {"variant": "U38C U127G", "self-cleavage": 1.17},
      {"variant": "U38C U57G", "self-cleavage": 1.4},
      {"variant": "U38G A91G", "self-cleavage": 0.38},
      {"variant": "U39A A69U", "self-cleavage": 0.83},
      {"variant": "U39A A69G", "self-cleavage": 1.5},
      {"variant": "U38A A140U", "self-cleavage": 1.08},
      {"variant": "U38G C113U", "self-cleavage": 0.07},
      {"variant": "U38C U87A", "self-cleavage": 1.6},
      {"variant": "U38C U87C", "self-cleavage": 1.26},
      {"variant": "U38A A91G", "self-cleavage": 1.4},
      {"variant": "U38C A69U", "self-cleavage": 0.9},
      {"variant": "U38C U132A", "self-cleavage": 1.77},
      {"variant": "U38G A86U", "self-cleavage": 1.6},
      {"variant": "U39A C85G", "self-cleavage": 1.07},
      {"variant": "U38A A64G", "self-cleavage": 1.37},
      {"variant": "U38C G74A", "self-cleavage": 0.33},
      {"variant": "U38C C40A", "self-cleavage": 1.48},
      {"variant": "U38C U122C", "self-cleavage": 0.8},
      {"variant": "U38C G80U", "self-cleavage": 0.06},
      {"variant": "U38C A110G", "self-cleavage": 0.17},
      {"variant": "U38C U39A", "self-cleavage": 0.89},
      {"variant": "U39A A51U", "self-cleavage": 1.74},
      {"variant": "U38C A89G", "self-cleavage": 1.9},
      {"variant": "U38C A89C", "self-cleavage": 1.6},
      {"variant": "U38C A89U", "self-cleavage": 2.15},
      {"variant": "U38A U87C", "self-cleavage": 1.56},
      {"variant": "U38C U103G", "self-cleavage": 0.03},
      {"variant": "U39A A125G", "self-cleavage": 1.01},
      {"variant": "U38A U102C", "self-cleavage": 1.99},
      {"variant": "U38C A126G", "self-cleavage": 1.56},
      {"variant": "U38C A47C", "self-cleavage": 1.99},
      {"variant": "U38C A47U", "self-cleavage": 0.77},
      {"variant": "U38C A47G", "self-cleavage": 0.74},
      {"variant": "U38C U49A", "self-cleavage": 1.45},
      {"variant": "U38C U49C", "self-cleavage": 1.21},
      {"variant": "U38G A118G", "self-cleavage": 0.95},
      {"variant": "U38C A90C", "self-cleavage": 1.62},
      {"variant": "U38C A90G", "self-cleavage": 1.4},
      {"variant": "U38C G41A", "self-cleavage": 1.95},
      {"variant": "U39A G104A", "self-cleavage": 0.03},
      {"variant": "U38C U124C", "self-cleavage": 1.21},
      {"variant": "U38A U100C", "self-cleavage": 2.23},
      {"variant": "U38C G75C", "self-cleavage": 0.14},
      {"variant": "U38C G75A", "self-cleavage": 0.13},
      {"variant": "U38C A68G", "self-cleavage": 0.84},
      {"variant": "U38C A59G", "self-cleavage": 0.61},
      {"variant": "U38C A78G", "self-cleavage": 0.2},
      {"variant": "U38C A78C", "self-cleavage": 0.46},
      {"variant": "U38C A78U", "self-cleavage": 0.35},
      {"variant": "U38A U130C", "self-cleavage": 1.47},
      {"variant": "U39A A86C", "self-cleavage": 1.21},
      {"variant": "U38C U102C", "self-cleavage": 1.91},
      {"variant": "U38C U102A", "self-cleavage": 1.44},
      {"variant": "U38C A63U", "self-cleavage": 0.76},
      {"variant": "U38A A114G", "self-cleavage": 0.96},
      {"variant": "U38C A118G", "self-cleavage": 1.14},
      {"variant": "U38C A96U", "self-cleavage": 1.66},
      {"variant": "U38A A89U", "self-cleavage": 2.11},
      {"variant": "U38A A62G", "self-cleavage": 1.19},
      {"variant": "U39A U87C", "self-cleavage": 1.53},
      {"variant": "U38C U70A", "self-cleavage": 0.58},
      {"variant": "U38C C112U", "self-cleavage": 0.02},
      {"variant": "U38C C112A", "self-cleavage": 0},
      {"variant": "U38A A67G", "self-cleavage": 0.89},
      {"variant": "U38A U120C", "self-cleavage": 1.12},
      {"variant": "U39A U72G", "self-cleavage": 0.3},
      {"variant": "U38C C45U", "self-cleavage": 1.23},
      {"variant": "U38C C61A", "self-cleavage": 0.99},
      {"variant": "U38C A64G", "self-cleavage": 1.45},
      {"variant": "U38C C113U", "self-cleavage": 0.14},
      {"variant": "U38G A62G", "self-cleavage": 1.59},
      {"variant": "U38G A62U", "self-cleavage": 1.41},
      {"variant": "U39A A92G", "self-cleavage": 0.92},
      {"variant": "U38G A59G", "self-cleavage": 0.9},
      {"variant": "U39A A118G", "self-cleavage": 1.28},
      {"variant": "U39A U49A", "self-cleavage": 1.4},
      {"variant": "U38C U133A", "self-cleavage": 1.64},
      {"variant": "U39A U120A", "self-cleavage": 1.92},
      {"variant": "U38G A47G", "self-cleavage": 1.78},
      {"variant": "U39A U100A", "self-cleavage": 0.55},
      {"variant": "U39A U100C", "self-cleavage": 2.25},
      {"variant": "U39A A59G", "self-cleavage": 1.6},
      {"variant": "U38A A90U", "self-cleavage": 2.21},
      {"variant": "U38C U72G", "self-cleavage": 0.27},
      {"variant": "U38C U72A", "self-cleavage": 0.11},
      {"variant": "U38C U72C", "self-cleavage": 0.27},
      {"variant": "U38C G93U", "self-cleavage": 2.26},
      {"variant": "U38C G93A", "self-cleavage": 2.41},
      {"variant": "U38C C77U", "self-cleavage": 2.04},
      {"variant": "U39A A66U", "self-cleavage": 1.74},
      {"variant": "U39A A82G", "self-cleavage": 0.44},
      {"variant": "U39A A82U", "self-cleavage": 0.28},
      {"variant": "U38C A86G", "self-cleavage": 1.65},
      {"variant": "U38C A86C", "self-cleavage": 1.31},
      {"variant": "U39A A68C", "self-cleavage": 1.75},
      {"variant": "U38A A98G", "self-cleavage": 0.91},
      {"variant": "U38C A92U", "self-cleavage": 1.63},
      {"variant": "U38C A92G", "self-cleavage": 1.97},
      {"variant": "U38C A114G", "self-cleavage": 0.75},
      {"variant": "U39A U57C", "self-cleavage": 0.73},
      {"variant": "U38C C105A", "self-cleavage": 0.05},
      {"variant": "U38C C88A", "self-cleavage": 1.74},
      {"variant": "U38C U108C", "self-cleavage": 0.02},
      {"variant": "U38C A94G", "self-cleavage": 0.74},
      {"variant": "U38C A94U", "self-cleavage": 2.15},
      {"variant": "U39A A67G", "self-cleavage": 1.5},
      {"variant": "U39A A67U", "self-cleavage": 2.37},
      {"variant": "U39A A134U", "self-cleavage": 2.44},
      {"variant": "U38C G137A", "self-cleavage": 0.9},
      {"variant": "U38C A54G", "self-cleavage": 1.17},
      {"variant": "U38C A54U", "self-cleavage": 2.56},
      {"variant": "U38C C121U", "self-cleavage": 1.86},
      {"variant": "U38A A78U", "self-cleavage": 0.39},
      {"variant": "U38A A78G", "self-cleavage": 0.26},
      {"variant": "U38A A66G", "self-cleavage": 1.31},
      {"variant": "U38C U131C", "self-cleavage": 1.33},
      {"variant": "U38C U120A", "self-cleavage": 1.76},
      {"variant": "U38A A92G", "self-cleavage": 1.34},
      {"variant": "U38C G44A", "self-cleavage": 1.16},
      {"variant": "U39A G137A", "self-cleavage": 1.8},
      {"variant": "U39A A60G", "self-cleavage": 0.99},
      {"variant": "U38C U43C", "self-cleavage": 1.59},
      {"variant": "U39A A96U", "self-cleavage": 1.71},
      {"variant": "U39A A78C", "self-cleavage": 0.23},
      {"variant": "U39A A78G", "self-cleavage": 0.35},
      {"variant": "U39A A78U", "self-cleavage": 0.44},
      {"variant": "U38C A62G", "self-cleavage": 1.37},
      {"variant": "U38C G119U", "self-cleavage": 1.69},
      {"variant": "U38C A60C", "self-cleavage": 2.1},
      {"variant": "U38C A67G", "self-cleavage": 1.55},
      {"variant": "U38C A67U", "self-cleavage": 2.33},
      {"variant": "U38C A111G", "self-cleavage": 0.02},
      {"variant": "U39A A55G", "self-cleavage": 1.53},
      {"variant": "U39A", "self-cleavage": 1.35},
      {"variant": "U38G A114G", "self-cleavage": 0.79},
      {"variant": "U39A A129C", "self-cleavage": 1.24},
      {"variant": "U39A U108C", "self-cleavage": 0.02},
      {"variant": "U38A U97C", "self-cleavage": 1.67},
      {"variant": "U38A U43C", "self-cleavage": 1.3},
      {"variant": "U38A U43A", "self-cleavage": 1.61},
      {"variant": "U39A A47U", "self-cleavage": 0.73},
      {"variant": "U38A U108C", "self-cleavage": 0.01},
      {"variant": "U39A C109U", "self-cleavage": 0.37},
      {"variant": "U38C G99C", "self-cleavage": 0.34},
      {"variant": "U39A A98G", "self-cleavage": 1.11},
      {"variant": "U38A G83U", "self-cleavage": 0.84},
      {"variant": "U38C A98U", "self-cleavage": 1.89},
      {"variant": "U38C A98G", "self-cleavage": 0.96}
    ]}
  ]
}
